# From IntAct's records for PubMed 12529400
# B1: Homeodomain-interacting protein kinase 1 (Mus musculus), O88904 (parent)
# chain: MASQLQVFSPPSVSSSAFCSAKKLKIEPSGWDVSGQSSNDKYYTHSKTLPATQGQASSSHQVANFNLPAYDQGLLLPAPAVEHIVVTAADSSGSAATATFQSSQTLTHRSNVSLLEPYQKCGLKRKSEEVESNGSVQIIEEHPPLMLQNRTVVGAAATTTTVTTKSSSSSGEGDYQLVQHEILCSMTNSYEVLEFLGRGTFGQVAKCWKRSTKEIVAIKILKNHPSYARQGQIEVSILSRLSSENADEYNFVRSYECFQHKNHTCLVFEMLEQNLYDFLKQNKFSPLPLKYIRPILQQVATALMKLKSLGLIHADLKPENIMLVDPVRQPYRVKVIDFGSASHVSKAVCSTYLQSRYYRAPEIILGLPFCEAIDMWSLGCVIAELFLGWPLYPGASEYDQIRYISQTQGLPAEYLLSAGTKTTRFFNRDPNLGYPLWRLKTPEEHELETGIKSKEARKYIFNCLDDMAQVNMSTDLEGTDMLAEKADRREYIDLLKKMLTIDADKRITPLKTLNHQFVTMSHLLDFPHSSHVKSCFQNMEICKRRVHMYDTVSQIKSPFTTHVAPNTSTNLTMSFSNQLNTVHNQASVLASSSTAAAATLSLANSDVSLLNYQSALYPSSAAPVPGVAQQGVSLQPGTTQICTQTDPFQQTFIVCPPAFQTGLQATTKHSGFPVRMDNAVPIVPQAPAAQPLQIQSGVLTQGSCTPLMVATLHPQVATITPQYAVPFTLSCAAGRPALVEQTAAVLQAWPGGTQQILLPSAWQQLPGVALHNSVQPAAVIPEAMGSSQQLADWRNAHSHGNQYSTIMQQPSLLTNHVTLATAQPLNVGVAHVVRQQQSSSLPSKKNKQSAPVSSKSSLEVLPSQVYSLVGSSPLRTTSSYNSLVPVQDQHQPIIIPDTPSPPVSVITIRSDTDEEEDNKYKPNSSSLKARSNVISYVTVNDSPDSDSSLSSPHPTDTLSALRGNSGTLLEGPGRPAADGIGTRTIIVPPLKTQLGDCTVATQASGLLSSKTKPVASVSGQSSGCCITPTGYRAQRGGASAVQPLNLSQNQQSSSASTSQERSSNPAPRRQQAFVAPLSQAPYAFQHGSPLHSTGHPHLAPAPAHLPSQPHLYTYAAPTSAAALGSTSSIAHLFSPQGSSRHAAAYTTHPSTLVHQVPVSVGPSLLTSASVAPAQYQHQFATQSYIGSSRGSTIYTGYPLSPTKISQYSYL
# Variants of: B1
# Conditions: with daxx_human DAXX
row,Variant,effect of a mutation on the interaction
1,K219A,decreasing interaction

# Variants of: B1
# Conditions: with daxx_mouse Daxx
row,Variant,effect of a mutation on the interaction
1,K219A,decreasing interaction
